Results taken from US20250049939A1, “NOVEL FLT3 ANTIBODIES AND ANTIBODY-DRUG-CONJUGATES BASED THEREON, THERAPEUTIC METHODS AND USES THEREOF IN COMBINATION WITH TYROSINE KINASE INHIBITORS” (TUBULIS GmbH, priority 2021, published 2025).

Biological target: human CD64 (high affinity Fc receptor, FCGR1) on cells (human) (UniProt P12314)
Assay: cell-based or functional assay

human CD64 (high affinity Fc receptor, FCGR1) on cells (human), sequence (P12314 16-374): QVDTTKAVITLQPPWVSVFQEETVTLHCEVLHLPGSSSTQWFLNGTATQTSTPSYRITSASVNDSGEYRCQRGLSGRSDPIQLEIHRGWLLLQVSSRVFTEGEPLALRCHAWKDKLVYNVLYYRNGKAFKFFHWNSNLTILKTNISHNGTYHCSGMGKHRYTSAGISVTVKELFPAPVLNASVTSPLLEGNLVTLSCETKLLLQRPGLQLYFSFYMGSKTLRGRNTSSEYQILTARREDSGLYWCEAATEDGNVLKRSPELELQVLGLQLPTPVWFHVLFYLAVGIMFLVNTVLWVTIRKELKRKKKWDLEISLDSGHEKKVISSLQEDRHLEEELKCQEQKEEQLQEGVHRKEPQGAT

**Q.** For “IgG1-ADC (palivizumab conjugated to MMAF) (antibody)”, which IC50 of cytotoxicity in Ba/F3-pMIY-CD64 cells is on record?
**A.** 31.8 ng/ml

**Q.** And the IC50 of cytotoxicity in Ba/F3 cells expressing both FLT3 and CD64?
**A.** 0.0783 µg/mL

**Q.** And the IC50 of cytotoxicity in CD64 positive leukemia and lymphoma cell lines?
**A.** 0.0128 to 2 µg/mL
